In assay [1] the target is T1, Human active C1s (Complement Technology) (human, UniProt P09871 16-688).
T1 sequence: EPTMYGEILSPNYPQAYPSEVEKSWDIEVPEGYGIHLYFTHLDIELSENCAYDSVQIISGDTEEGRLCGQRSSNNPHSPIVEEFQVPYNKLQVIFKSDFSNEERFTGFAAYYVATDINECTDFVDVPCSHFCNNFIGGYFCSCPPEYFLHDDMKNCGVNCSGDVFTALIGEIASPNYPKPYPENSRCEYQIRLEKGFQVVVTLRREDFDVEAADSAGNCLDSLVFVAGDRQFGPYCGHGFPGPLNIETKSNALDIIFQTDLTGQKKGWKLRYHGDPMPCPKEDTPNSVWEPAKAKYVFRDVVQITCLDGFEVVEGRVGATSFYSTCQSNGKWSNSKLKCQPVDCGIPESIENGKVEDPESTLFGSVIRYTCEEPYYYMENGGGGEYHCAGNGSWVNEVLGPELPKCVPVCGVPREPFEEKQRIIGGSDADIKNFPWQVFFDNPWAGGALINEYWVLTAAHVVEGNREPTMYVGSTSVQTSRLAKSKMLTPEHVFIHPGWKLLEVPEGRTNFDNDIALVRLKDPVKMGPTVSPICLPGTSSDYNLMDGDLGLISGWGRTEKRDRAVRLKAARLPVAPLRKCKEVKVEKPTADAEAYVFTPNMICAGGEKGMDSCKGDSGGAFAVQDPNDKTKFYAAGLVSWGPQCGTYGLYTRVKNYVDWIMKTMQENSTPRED
The experiment in a line: cell-based or functional assay.

The target of assay [2] is T1, Human active C1s (Complement Technology). The experiment in a line: cell-based or functional assay. The source holds these as a separate data set.
For another assay, the target named is T2, cynomolgus aC1s (cynomolgus, UniProt A0A2K5VQX9 16-685).
T2 construct: also called Cyno aC1s; caC1s
T2 sequence: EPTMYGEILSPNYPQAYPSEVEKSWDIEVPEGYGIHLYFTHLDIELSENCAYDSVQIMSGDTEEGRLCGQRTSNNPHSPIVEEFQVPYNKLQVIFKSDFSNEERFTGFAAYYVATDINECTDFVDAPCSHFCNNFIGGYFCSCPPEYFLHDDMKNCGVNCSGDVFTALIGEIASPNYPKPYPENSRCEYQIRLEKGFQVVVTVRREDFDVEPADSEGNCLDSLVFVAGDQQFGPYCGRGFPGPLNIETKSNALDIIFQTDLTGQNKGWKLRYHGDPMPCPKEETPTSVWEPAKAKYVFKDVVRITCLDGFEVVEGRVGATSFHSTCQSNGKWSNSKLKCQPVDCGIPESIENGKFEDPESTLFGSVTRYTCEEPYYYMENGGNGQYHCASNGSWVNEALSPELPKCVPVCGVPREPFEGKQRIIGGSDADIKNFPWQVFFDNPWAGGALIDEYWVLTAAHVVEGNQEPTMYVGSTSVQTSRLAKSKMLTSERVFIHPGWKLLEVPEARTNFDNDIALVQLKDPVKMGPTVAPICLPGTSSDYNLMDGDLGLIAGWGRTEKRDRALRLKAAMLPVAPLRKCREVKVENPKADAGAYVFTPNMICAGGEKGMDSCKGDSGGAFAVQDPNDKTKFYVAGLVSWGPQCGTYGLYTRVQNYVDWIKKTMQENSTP
The experiment in a line: affinity of bispecific purified from CHO cells (SPR; details not restated).

The target in assay [3] is T3, His-tagged recombinant human TfR (produced in-house) (human, UniProt P02786 89-760).
T3 construct: also called hTfR; transferrin receptor 1
The description is as above.

The target of another assay is T4, cynomolgus TfR (cynomolgus, UniProt H9EXL1 89-760 (rhesus entry)).
T4 construct: also called Cyno TfR; cTfR
Described as above.

Assay [4] concerns the target T1, Human active C1s (Complement Technology). The description is as above.

T3 sequence (P02786 89-760 limits assumed): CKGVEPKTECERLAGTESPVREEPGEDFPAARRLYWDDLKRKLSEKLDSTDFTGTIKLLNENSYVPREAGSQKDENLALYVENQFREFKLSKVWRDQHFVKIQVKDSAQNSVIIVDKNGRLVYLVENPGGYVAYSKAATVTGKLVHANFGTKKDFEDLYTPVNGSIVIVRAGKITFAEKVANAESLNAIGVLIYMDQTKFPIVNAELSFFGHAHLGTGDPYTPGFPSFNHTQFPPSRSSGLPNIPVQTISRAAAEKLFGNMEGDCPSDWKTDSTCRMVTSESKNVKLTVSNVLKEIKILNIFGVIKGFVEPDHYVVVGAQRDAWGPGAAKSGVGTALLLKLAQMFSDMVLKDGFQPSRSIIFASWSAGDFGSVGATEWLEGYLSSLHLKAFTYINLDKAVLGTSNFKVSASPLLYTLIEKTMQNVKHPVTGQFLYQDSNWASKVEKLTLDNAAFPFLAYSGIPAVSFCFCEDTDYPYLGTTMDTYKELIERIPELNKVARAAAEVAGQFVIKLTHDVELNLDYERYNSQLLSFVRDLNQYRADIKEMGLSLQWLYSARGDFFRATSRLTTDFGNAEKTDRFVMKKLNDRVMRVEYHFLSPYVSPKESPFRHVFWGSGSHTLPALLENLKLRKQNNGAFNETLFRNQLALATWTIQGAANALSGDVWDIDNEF
T4 sequence (chain, as listed by the source): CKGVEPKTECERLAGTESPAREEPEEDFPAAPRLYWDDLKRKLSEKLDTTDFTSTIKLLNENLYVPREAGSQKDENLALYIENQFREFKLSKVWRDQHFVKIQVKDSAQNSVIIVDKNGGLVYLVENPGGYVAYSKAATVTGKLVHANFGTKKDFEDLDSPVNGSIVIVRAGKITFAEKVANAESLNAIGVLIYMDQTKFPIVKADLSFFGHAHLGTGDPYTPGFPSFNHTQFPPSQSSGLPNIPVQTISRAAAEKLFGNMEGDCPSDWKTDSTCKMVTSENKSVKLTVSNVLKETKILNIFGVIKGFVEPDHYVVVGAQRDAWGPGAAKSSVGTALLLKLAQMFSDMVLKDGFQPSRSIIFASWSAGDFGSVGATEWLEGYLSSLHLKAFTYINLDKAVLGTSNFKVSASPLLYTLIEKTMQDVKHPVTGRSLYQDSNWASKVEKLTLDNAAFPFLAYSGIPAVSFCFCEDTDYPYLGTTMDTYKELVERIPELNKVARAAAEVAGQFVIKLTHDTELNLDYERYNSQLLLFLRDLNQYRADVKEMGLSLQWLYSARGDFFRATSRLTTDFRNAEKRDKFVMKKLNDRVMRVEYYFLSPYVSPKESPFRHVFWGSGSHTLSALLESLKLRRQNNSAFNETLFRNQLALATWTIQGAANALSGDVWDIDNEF

B1: bispecific anti-aC1s (L4)/anti-TfR (531v25.v6) IgG4 antibody (bispecific antibody)
heavy 1: QVQLVQSGAEVKKPGASVKLSCTASGFNIKDDYIHWVKEAPGQGLEWIGRIDPADGHTKYAPKFQVKVTITADTSTSTAYLELSSLRSEDTAVYYCARYGYGREVFDYWGQGTTVTVSSASTKGPSVFPLAPCSRSTSESTAALGCLVKDYFPEPVTVSWNSGALTSGVHTFPAVLQSSGLYSLSSVVEVPSSSLGTKTYTCNVDHKPSNTKVDERVESDYGPPCPPCPAPEFEGGPSVFLFPPKPKDTLMISRTPEVTCVVVDVSQEDPEVQFNWYVDGVEVHNAKTKPREEQFNSTYRVVSVLTVLHQDWLNGKEYKCKVSNKGLPSSIEKTISKAKGQPREPQVCTLPPSQEEMTKNQVSLSCAVKGFYPSDIAVEWESNGQPENNYKTTPPVLDSDGSFFLVSRLTVDKSRWQEGNVFSCSVLHEALHSRFTQKSLSLSLG
light 1: DIVMTQSPDSLAVSLGERATISCKSSQSVDYEGDSYLNWYQKKPGQPPKLLIYDASNLESGVPDRFSGSGSGTDFTLTISSLQAEDVAVYYCQQSNEDPWTFGQGTKVEIKRTVAAPAVFIFPPSKKQLKSGTASVVCLLKNFYPREAKVQWKVDNALQSGNSQESVTEQDSKDSTYSLSSTLTLSKADYEKHKVYACEVTHQGLSSPVTKSFNRGEC
heavy 2: QVQLVQSGAEVKKPGASVKVSCKASGYTFTRYYLNWVRKAPGQGLEWIGMIDPSVSETHYAQKFQGRATLTVDKSTSTAYMELSSLRSEDTAVYYCSQIRLPYYYAMDSWGQGTTVTVSSASTKGPSVFPLAPCSRSTSESTAALGCLVKDYFPEPVTVSWNSGALTSGVHTFPAVLQSSGLYSLSSVVTVPSSSLGTKTYTCNVDHKPSNTKVDKRVESKYGPPCPPCPAPEFEGGPSVFLFPPKPKDTLMISRTPEVTCVVVDVSQEDPEVQFNWYVDGVEVHNAKTKPREEQFNSTYRVVSVLTVLHQDWLNGKEYKCKVSNKGLPSSIEKTISKAKGQPREPQVYTLPPCQEEMTKNQVSLWCLVKGFYPSDIAVEWESNGQPENNYKTTPPVLDSDGSFFLYSRLTVDKSRWQEGNVFSCSVLHEALHSHYTQKSLSLSLG
light 2: DIQMTQSPSSLSASVGDRVTITCRASQDIESFLNWYQEKPGKAPKLLIYYTSRLQSGVPSRFSGSGSGTDYTLTISSLQPEDFATYYCQQGNTLPRTFGGGTKVEIKRTVAAPSVFIFPPSDEQLKSGTASVVCLLNNFYPREAKVQWKVDNALQSGNSQESVTEQDSKDSTYSLSSTLTLSKADYEKHKVYACEVTHQGLSSPVTKSFNRGEC
notes: Purified from CHO cells; monovalent for aC1s
Take B1: the “IC50, C3d deposition on neurons in iPSC tri-cultures with 3% serum” value in assay [1] worked out at 23.5 µg/mL. In assay [2], the “IC50, Wieslab Complement Pathway Assay” value is 1.08 µg/mL. For the same molecule, in assay [2], the “IC90, Wieslab Complement Pathway Assay” value was 7.6 µg/mL. For the same molecule, the dissociation constant Kd was 0.248 nM with cynomolgus aC1s, 28.6 nM in assay [3], 43.7 nM in the assay with cynomolgus TfR and 3.31 nM in assay [4].
